Patent US8735129B2, “Ginsenoside glycosidase derived from the genus Terrabacter, and use thereof” (Korea Research Institute of Bioscience and Biotechnology, priority 2009, dated 2014)

How the values were obtained:
[1] = Kinetic studies (Km, Vmax) with pNPGlc; format: biochemical; details: hydrolysis of pNPGlc, 37° C., Cleland program
Description: Kinetic studies were performed with freshly purified enzyme using pNPGlc at the concentrations from 0.1 mM to 0.6 mM. Its absorbance at 405 nm was monitored at 37° C. for 20 minutes. The resulting data were used to determine Km and Vmax using the Enzyme Kinetics Program reported by Cleland.
In order to examine the substrate specificity of Bgl-gyp17, it was incubated in 50 mM sodium phosphate buffer containing 2.0 mM βα and β-type p-NP (p-nitrophenyl) and oNP (O-nitrophenyl)-glycosidase at pH 7.0 and 37° C. […] The Km and Vmax for the hydrolysis of pNPGlc by ginsenoside glycosidase were determined using 0-2 mM substrate and the enzyme kinetics program reported by Cleland. The values measured by the program were 4.24 mM and 0.10 mmol*min^−1*mg of protein^−1 for pNpGlc.

[2] = format: biochemical; details: after incubation at 45° C. for 30 minutes
Description: The thermo-dependence of the activity was assayed in 50 mM potassium phosphate buffer at various temperatures ranging from 4 to 90° C. Thermostability was tested by incubating aliquots of the enzyme in 50 mM potassium phosphate buffer for 30 minutes at different temperatures. After cooling the sample on ice for 10 minutes, residual activity was determined by a standard analysis;
The pH effect on the enzymatic activity was measured using 2.0 mM pNPGlc in the following buffer (50 mM):
Buffer: pH range of 2 to 10: KCl—HCl (pH 2), glycine-HCl (pH 3), sodium acetic acid (pH 4 and 5), sodium phosphate (pH 6 and 7), Tris-HCl (pH 8 and 9) and glycine-sodium hydroxide (pH 10).
The enzyme was incubated in each of the above mentioned buffers at 4° C. for 24 hours, and then pHPGlc was analyzed in 50 mM potassium buffer to measure the enzymatic stability according to pH change. The activity was measured by the above mentioned method.
The results were represented as an activity probability obtained at the optimum pH.
The temperature-dependent activity in the 50 mM potassium phosphate buffer was analyzed within the temperature range of 4-90° C. using 2.0 mM pNPGlc at the optimum pH for 5 minutes. […] The sample was cooled in ice for 10 minutes, and the residual activity was measured by pNPGlc analysis.

[3] = Specific activity of the enzyme with pNPGlc; format: biochemical
Description: Specific activity was measured using 90 μl of 50 mM sodium phosphate buffer containing 2.0 mM pNPGlc (p-nitrophenyl-β-D-glucopyranoside; Sigma) at pH 7.0, and 10 μl of the diluted purified enzyme was treated at 37° C. for 20 minutes before initiation of the reaction, followed by incubation. 0.1 ml of 1 M Na2CO3 was treated for 5 minutes to terminate the reaction, and the secretion of p-nitrophenol was immediately measured at 405 nm. One unit of activity was defined as the amount of enzyme that released 1 μmol of p-nitrophenol per minute. Specific activity is expressed in units per milligram protein. Protein concentration was measured using a Bio-Rad protein staining reagent according to the protocol. All analyses were performed at least three times.

B1: Bgl-gyp17: recombinant ginsenoside glycosidase from Terrabacter Gsoil 3082, SEQ ID NO. 1, 589 residues (protein, listed as Terrebacter sp.)
chain: MDPYEDPRLPVEVRVEDLLGRLSLEEKVGLMFQTVIEAGSDGTVLEHPGSISKSPTSTVVLDKHLTHFNVHALDDPRMAARWSNALQALAERTPHGIPVTVSTDPRHAFIENVGVSFSAGAFSQWPEPLGLAALRDADAVRRFADIARQEYVAVGIRAALHPTLDLATEPRWARQAGTFGQDPDLVTELGVAYLKGFQGDSLGSGSVACTSKHFPGGGPQKDGEDAHFPYGREQVYPGGRFADHLKPFPPIIEAGTAGIMPYYGMPVDLVVDGVEIEPIGFGYNKQVVTGLLREKLGYDGVVVTDWELVNDNHVGDQVLPARAWGVEHLDPHGRMELILEAGADQFGGEECVEILLDLVAQGRVTEARVDESARRILAVKFRLGLFENPYVDEDEAAATVGRDDFREEGYAAQARSVTVLHHEGGRLPLEHGLRIYAEQVSPEAVARHGKLVDRPEDADVAVVRLTAPFDPRSDLFLESWFHQGSLDFPPGLVARLERIAAVCPLVVDVVLDRPAVLTPLLRFASAVVGSFGSCDDALLDALTGTIAPVGRLPFDLPRSMDQVRAHGEDVPGYDDPLFPFGHGLRLDTE
modifications: PEPTIDE (1)..(589) amino acid sequence of Bgl-gyp17
notes: 1, 589 residues
- Km [1]: 4.24 mM
- Vmax [1]: 0.10 mmol*min^−1*mg of protein^−1
- loss of activity [2]: approximately 32%
- specific activity at 100% ([3]; control without metal ions or reagents, Table 5): ^aThe specific activity at 100% was 44.3 U/mg.
- Specific activity (U/mg) ([3]; purification step: Crude extract): 23.4 U/mg
- Specific activity (U/mg) ([3]; purification step: DEAE-cellulose purification): 65.8 U/mg
- Specific activity (U/mg) ([3]; purification step: Ni purification): 65.0 U/mg
